Data: patent publication US20230363418A1, “COMPOSITION FOR PREVENTING OR TREATING NEUROPSYCHOLOGIC DISEASE, COMPRISING MANF” (CEFO CO., LTD., priority 2020, published 2023)

Tested on: IBO-administered memory impairment and autism model
Experiment: Morris water maze experiment
Type: in vivo, rat
Conditions: MANF-AAV-hMSC transplanted into the hippocampus of IBO rats
Experimental: Memory impairment and autism models were prepared by administering IBO to the entorhinal cortex of the rats, wherein the IBO destroys granule cells of the dentate gyrus (DG) and pyramidal cells of the hippocampus, which receive nerve signals input from the entorhinal cortex. Specifically, the rats were anesthetized with equitensin (10% ethanol containing 350 mM pentobarbital sodium, 250 mM chloral hydrate, 85 mM MgSO and 40% propylene glycol). The incisor bar of a stereotaxic device (Stoelting Co., U.S.A.) was placed 3.4 mm below the interaural line, and the injection needle angle was fixed at […] right from the center of the sagittal plane. […]
The same number of rats as in each group of Example 6-1 was subjected to the Morris water maze experiment in a round, rust-free and inner surface-white swimming pool (diameter 160 cm; height 60 cm). […] The final experiment measured the time the rat stayed where the platform was for 60 seconds after removing the platform (probe trial). Swimming time and training length were tracked and recorded using a video camera. […] The captured video pictures were analyzed with a video tracking system (Ethovision water maze program, Noldus Information Technology, Wogeningen, The Netherlands). The analyzed information included the time of swimming in the target quadrant, and the number of crossings the imaginary platform to find the removed platform.

B1: MANF: one of 16 or more growth factors secreted into nerve stem cells by cerebrovascular cells; amino acid sequence of SEQ ID NO: 1 (protein)
chain: MRRMWATQGLAVALALSVLPGSRALRPGDCEVCISYLGRFYQDLKDRDVTFSPATIENELIKFCREARGKENRLCYYIGATDDAATKIINEVSKPLAHHIPVEKICEKLKKKDSQICELKYDKQIDLSTVDLKKLRVKELKKILDDWGETCKGCAEKSDYIRKINELMPKYAPKAASARTDL
modifications: MANF
  memory ability in Morris water maze test: memory improvement
